In one series the target is T1, GST-RB18A-N2 (Homo sapiens, UniProt Q15648 SEQ:1234-1566).
T1 chain: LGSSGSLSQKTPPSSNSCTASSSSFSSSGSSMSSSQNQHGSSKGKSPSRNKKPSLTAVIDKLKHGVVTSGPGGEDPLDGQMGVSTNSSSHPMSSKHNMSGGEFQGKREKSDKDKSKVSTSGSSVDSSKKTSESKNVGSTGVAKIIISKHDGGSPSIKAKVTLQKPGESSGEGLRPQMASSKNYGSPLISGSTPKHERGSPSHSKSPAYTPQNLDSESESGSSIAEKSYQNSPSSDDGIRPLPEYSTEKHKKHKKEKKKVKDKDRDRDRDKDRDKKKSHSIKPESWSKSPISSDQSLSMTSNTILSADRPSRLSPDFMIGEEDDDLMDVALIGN
The series can be described thus: EMSA; no direct interaction with p53 oligonucleotide. As to conditions: tags: N-terminal GST; label: 32P; EcoRI-compatible ends. On the procedure: (§1) Part A: four μl of in vitro translated products of wild-type p53 (lanes 2, 5-10) or Luciferase (lanes 3-4) cDNAs were incubated for 20 min at room temperature with 0.2 μg of PAb421 (lane 5) or PAb1801 (lane 6) moAbs or with 1 μg of GST-RB18A-N2 (lanes 4, 7, 8 and 9) or GST-RB18A-Nl1 (lane 10) proteins. Then, a radiolabeled oligonucleotide (0.4 ng per lane) containing the consensus DNA binding site of p53 was added for 20 min at 4° C.
(§2) EMSA was performed as follows. Translated product (4 μl) was pre-incubated for 20 min at room temperature with 1 μg of GST-RB18A fusion protein or 0.2 μg of moAb in a final reaction volume of 14 μl of buffer A (25 mM Tris, pH 7.4, 80 mM KCl, 0.1 mM EDTA, 1 mM DTT and 10% glycerol). Then, 6 μl of buffer B (80 mM KCl, 16.6 mM MgCl₂ and 3 mg/ml BSA) containing 0.4 ng of labeled oligonucleotide and 0.5 μg of poly(dl-dC) were added and incubation was carried out for 20 min at 4° C. Reaction products were run for 15 min at 200 V on a 4% polyacrylamide gel containing 0.4×Tris-Borate-EDTA (90 mM Tris, 64.6 mM Borate, 2.5 mM EDTA, pH 8.3).

In the next series the target is p53 wild-type (Homo sapiens, UniProt P04637 P04637:1-393). The series can be described thus: competition; non-specific oligo did not inhibit the complex with n1. The following applies: tags: none; plasmid pSP65-p53H8; chain copies: 4. As to the method: as §1, §2
Chain of p53 wild-type (P04637 whole entry, one chain of several): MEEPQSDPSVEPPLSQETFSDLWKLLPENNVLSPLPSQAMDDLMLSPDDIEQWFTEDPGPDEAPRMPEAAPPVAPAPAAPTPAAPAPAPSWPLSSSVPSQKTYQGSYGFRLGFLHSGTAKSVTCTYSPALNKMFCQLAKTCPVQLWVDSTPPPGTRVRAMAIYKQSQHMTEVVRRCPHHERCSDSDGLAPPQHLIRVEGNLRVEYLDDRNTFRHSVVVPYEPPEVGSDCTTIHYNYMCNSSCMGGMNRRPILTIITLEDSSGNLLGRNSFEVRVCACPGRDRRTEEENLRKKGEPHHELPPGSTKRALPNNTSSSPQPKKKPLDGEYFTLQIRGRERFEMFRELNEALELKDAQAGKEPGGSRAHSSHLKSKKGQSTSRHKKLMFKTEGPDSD

B1: PG p53 consensus oligonucleotide (dsDNA)
DNA 1: AATTCAGACATGCCTAGACATGCCTG
DNA 2: CAGGCATGTCTAGGCATGTCTGAATT
In the case of B1, the binding result in the series with GST-RB18A-N2 is “no binding”.

B2: TL non-specific competitor (dsDNA)
DNA 1: TATGTCTAAGGGACCTGCGGTTGGCATTGATCTTG
DNA 2: CAAGATCAATGCCAACCGCAGGTCCCTTAGACATA
Regarding B2, in the series with p53 wild-type, the binding result was “no binding”.

Values taken from patent US20040052794, “p53 regulatory protein called RB18A and uses thereof” (published 2004).
